Test results taken from paper PMC7406630, “A new ^68Ga-labeled somatostatin analog containing two iodo-amino acids for dual somatostatin receptor subtype 2 and 5 targeting” (EJNMMI Research, 2020).
Where two headings read alike, the source gives them in different places.

Assays:
[1] = format: physicochemical; conditions: pH 7.4
Method: To a pre-saturated mixture of 500 μL n-octanol and 500 μL of phosphate-buffered saline (PBS) at pH 7.4, 10 μL of 1 μM of ^67Ga-labeled conjugates was added. The solutions were vortexed for 1 h to reach equilibrium and then centrifuged (3000 rpm) for 10 min. From each phase, 100 μL was removed and measured in a γ-counter. The partition coefficient was calculated as the average of the logarithmic values (n = 3) of the ratio between the radioactivity in the organic and the PBS phase.

human SST2 [2] = target: T1, human SST2 (Homo sapiens, UniProt P30874); experiment: cAMP accumulation experiments on HEK-SST2 cells (agonistic potency); format: cell-based; conditions: for EC50: read-out: SST2 EC50, nM (95% CI), cAMP, HEK-SST2 cells, 3 to 4 sessions in duplicate
T1 construct: expressed in transfected cells; host or cells: HEK293 (HEK-SST2)
T1 sequence (P30874 whole entry): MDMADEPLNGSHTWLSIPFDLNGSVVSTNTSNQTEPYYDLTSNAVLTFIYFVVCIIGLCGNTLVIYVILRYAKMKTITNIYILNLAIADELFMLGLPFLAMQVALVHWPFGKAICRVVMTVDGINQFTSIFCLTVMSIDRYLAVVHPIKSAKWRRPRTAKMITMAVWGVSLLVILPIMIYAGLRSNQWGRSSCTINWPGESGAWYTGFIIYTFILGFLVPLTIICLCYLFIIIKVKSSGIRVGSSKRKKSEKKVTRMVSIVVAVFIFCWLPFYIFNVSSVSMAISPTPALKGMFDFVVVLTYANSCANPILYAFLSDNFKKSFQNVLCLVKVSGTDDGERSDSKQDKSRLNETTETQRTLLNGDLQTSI
Method: (§3) Human Embryonic Kidney (HEK293) cells (a kind gift from Dr. A. Mühlethaler-Mottet, Pediatric Hematology-Oncology Unit, Lausanne University Hospital, Switzerland) were stably transfected with plasmids encoding the human SST2 and SST5 (HEK-SST2 and HEK-SST5) and cultivated as previously described [25]. Non-transfected HEK cells were used as a negative control.
(§4) cAMP accumulation experiments on HEK-SST2 and HEK-SST5 cells were performed with cAMP direct immunoassay kit (colorimetric, K371, BioVision) as described previously [25].

human SST2 [3] = target: T1, human SST2; experiment: Competition binding assay on HEK-SST2 cells with ^125I-labeled SS-14; conditions: read-out: SST2 IC50, nM (95% CI), ^125I-SS-14 radioligand, 3 to 5 sessions in duplicate
Method: (§1) Human Embryonic Kidney (HEK293) cells (a kind gift from Dr. A. Mühlethaler-Mottet, Pediatric Hematology-Oncology Unit, Lausanne University Hospital, Switzerland) were stably transfected with plasmids encoding the human SST2 and SST5 (HEK-SST2 and HEK-SST5) and cultivated as previously described. Non-transfected HEK cells were used as a negative control.
(§2) Binding assays were performed as described previously.

human SST5 [4] = target: T2, human SST5 (Homo sapiens, UniProt P35346); parameters: method as in PMID 29523357; conditions: read-out: SST5 EC50, nM (95% CI); cAMP, HEK-SST5 cells; cited from earlier work
T2 construct: expressed in transfected cells; host or cells: HEK293 (HEK-SST5)
T2 sequence (P35346 whole entry): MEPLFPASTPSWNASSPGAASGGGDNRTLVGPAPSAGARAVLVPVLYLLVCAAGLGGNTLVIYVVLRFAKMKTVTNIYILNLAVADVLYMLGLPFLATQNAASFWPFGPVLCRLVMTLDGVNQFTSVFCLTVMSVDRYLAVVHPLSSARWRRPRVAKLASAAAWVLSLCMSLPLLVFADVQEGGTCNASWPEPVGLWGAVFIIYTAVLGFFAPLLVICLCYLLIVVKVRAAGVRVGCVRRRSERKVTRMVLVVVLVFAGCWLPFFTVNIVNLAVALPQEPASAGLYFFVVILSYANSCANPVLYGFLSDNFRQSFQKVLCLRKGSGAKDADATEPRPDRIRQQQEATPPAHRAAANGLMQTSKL

human SST5 [5] = target: T2, human SST5; parameters: method as in PMID 29523357; conditions: read-out: SST5 IC50, nM (95% CI); HEK-SST5 cells, ^125I-SS-14 radioligand; published earlier but measured head-to-head; cited from earlier work
human SST2 [6] = target: T1, human SST2; parameters: method as in PMID 29523357; conditions: read-out: SST2 EC50, nM (95% CI); cAMP, HEK-SST2 cells; cited from earlier work
human SST2 [7] = target: T1, human SST2; parameters: method as in PMID 29523357; conditions: read-out: SST2 IC50, nM (95% CI); HEK-SST2 cells, ^125I-SS-14 radioligand; published earlier but measured head-to-head; cited from earlier work
in vivo [8] = conditions: female, mouse, 100 pmol, total radioactivity
human SST5 [9] = target: T2, human SST5; experiment: cAMP accumulation experiments on HEK-SST5 cells (agonistic potency); format: cell-based; conditions: read-out: SST5 EC50, nM (95% CI), 3 to 4 sessions in duplicate
Method: as §3, §4

human SST5 [10] = target: T2, human SST5; experiment: Competition binding assay on HEK-SST5 cells with ^125I-labeled SS-14; conditions: read-out: SST5 IC50, nM (95% CI), ^125I-SS-14 radioligand, 3 to 5 sessions in duplicate
Method: as §1, §2

in vivo [11] = conditions: female, mouse, 100 pmol, total radioactivity; remark: listed apart in the source
SST5 [12] = system: SST5; parameters: method as in PMID 25918675; conditions: cited from earlier work
SST5 [13] = system: SST5; parameters: method as in PMID 10774879; conditions: cited from earlier work
SST2 = system: SST2; parameters: method as in PMID 10774879; conditions: cited from earlier work
[14] = in vivo; cited from earlier work
[15] = athymic Nude-Foxn1^nu/Foxn1^+, Adrenal uptake
[16] = athymic Nude-Foxn1^nu/Foxn1^+, Blood uptake
[17] = athymic Nude-Foxn1^nu/Foxn1^+, Femur uptake
[18] = athymic Nude-Foxn1^nu/Foxn1^+, Heart uptake
[19] = athymic Nude-Foxn1^nu/Foxn1^+, Intestine uptake
[20] = athymic Nude-Foxn1^nu/Foxn1^+, Kidney uptake
[21] = athymic Nude-Foxn1^nu/Foxn1^+, Lung uptake
[22] = athymic Nude-Foxn1^nu/Foxn1^+, Muscle uptake
[23] = athymic Nude-Foxn1^nu/Foxn1^+, Pancreas uptake
[24] = athymic Nude-Foxn1^nu/Foxn1^+, Pituitary uptake
[25] = athymic Nude-Foxn1^nu/Foxn1^+, SST2 tumor uptake
[26] = athymic Nude-Foxn1^nu/Foxn1^+, SST5 tumor uptake
[27] = athymic Nude-Foxn1^nu/Foxn1^+, Stomach uptake
[28] = athymic Nude-Foxn1nu/Foxn1+, Spleen uptake
[29] = athymic Nude-Foxn1^nu/Foxn1^+, Liver uptake
[30] = athymic Nude-Foxn1nu/Foxn1+, Pancreas uptake

With C[C@@H](O)[C@H](NC(=O)[C@@H]1CSSC[C@H](NC(=O)[C@@H](Cc2ccccc2)NC(=O)CN2CCN(CC(=O)O)CCN(CC(=O)O)CCN(CC(=O)O)CC2)C(=O)N[C@@H](Cc2ccc(O)cc2)C(=O)N[C@H](Cc2c[nH]c3ccccc23)C(=O)N[C@@H](CCCCN)C(=O)N[C@@H]([C@@H](C)O)C(=O)N1)C(=O)O [[^67Ga]Ga-DOTA-TATE, metal not drawn] the “log D” value [1] was “− 3.0 ± 0.1”.
Work on CC(C)[C@@H]1NC(=O)[C@H](CCCCN)NC(=O)[C@@H](Cc2c[nH]c3ccccc23)NC(=O)[C@H](Cc2ccc(O)cc2)NC(=O)[C@@H](NC(=O)[C@@H](Cc2ccc(N)cc2)NC(=O)CN2CCN(CC(=O)O)CCN(CC(=O)O)CCN(CC(=O)O)CC2)CSSC[C@@H](C(=O)N[C@H](C(N)=O)[C@@H](C)O)NC1=O [^natGa-DOTA-ST8951, metal not drawn] yielded an EC50 (human SST2 [2]) of 9.8 nM and an IC50 (human SST2 [3]) of 7.5 nM.
In the case of Pasireotide, the EC50 (human SST5 [4]) is given as 0.6 nM, the IC50 (human SST5 [5]) is given as 0.2 nM and the EC50 (human SST2 [6]) is given as 1.1 nM. For the same compound, the IC50 (human SST2 [7]) was 3.1 nM.
With CC(C)[C@@H]1NC(=O)[C@H](CCCCN)NC(=O)[C@@H](Cc2c[nH]c3ccccc23)NC(=O)[C@H](Cc2ccc(O)c(I)c2)NC(=O)[C@@H](NC(=O)[C@@H](Cc2ccc(N)c(I)c2)NC(=O)CN2CCN(CC(=O)O)CCN(CC(=O)O)CCN(CC(=O)O)CC2)CSSC[C@@H](C(=O)N[C@H](C(N)=O)[C@@H](C)O)NC1=O [^natGa-DOTA-ST8950, metal not drawn] the “Factor of reduction of agonistic potency for SST2 vs ST8950” value (human SST2 [2]; after ^natGa-DOTA conjugation) was 1.6, the EC50 (human SST2 [2]) was 0.46 nM and the IC50 (human SST2 [3]) was 0.32 nM.
With CC(C)[C@@H]1NC(=O)[C@H](CCCCN)NC(=O)[C@@H](Cc2c[nH]c3ccccc23)NC(=O)[C@H](Cc2ccc(O)c(I)c2)NC(=O)[C@@H](NC(=O)[C@@H](Cc2ccc(N)c(I)c2)NC(=O)CN2CCN(CC(=O)O)CCN(CC(=O)O)CCN(CC(=O)O)CC2)CSSC[C@@H](C(=O)N[C@H](C(N)=O)[C@@H](C)O)NC1=O [[^67Ga]Ga-DOTA-ST8950, metal not drawn] the “log D” value [1] was “− 1.0 ± 0.1”.
C[C@@H](O)[C@@H]1NC(=O)[C@H](CCCCN)NC(=O)[C@@H](Cc2c[nH]c3ccccc23)NC(=O)[C@H](Cc2cccc3ccccc23)NC(=O)[C@@H](NC(=O)[C@@H](Cc2ccccc2)NC(=O)CN2CCN(CC(=O)O)CCN(CC(=O)O)CCN(CC(=O)O)CC2)CSSC[C@@H](C(=O)N[C@H](CO)[C@@H](C)O)NC1=O [[^68Ga]Ga-DOTA-NOC, [^68Ga][Ga-DOTA^0,1-Nal^3]-octreotide, metal not drawn, reference compound] gave a tissue uptake at 1 h (in vivo [8]; [15]) of 4.6 ± 1 %ID/g, a tissue uptake at 1 h (in vivo [8]; [16]) of 1.1 ± 0.4 %ID/g and a tissue uptake at 1 h (in vivo [8]; [17]) of 1.7 ± 0.8 %ID/g. For the same compound, the tissue uptake at 1 h (in vivo [8]; [18]) was 0.7 ± 0.2 %ID/g, the tissue uptake at 1 h (in vivo [8]; [19]) was 3.3 ± 0.7 %ID/g and the tissue uptake at 1 h (in vivo [8]; [20]) was 9.8 ± 3.2 %ID/g. For the same compound, the tissue uptake at 1 h (in vivo [8]; [21]) was 3.3 ± 1.4 %ID/g, the tissue uptake at 1 h (in vivo [8]; [22]) was 0.5 ± 0.2 %ID/g and the tissue uptake at 1 h (in vivo [8]; [23]) was 16 ± 3 %ID/g. For the same compound, the tissue uptake at 1 h (in vivo [8]; [24]) was 8.2 ± 2.8 %ID/g, the tissue uptake at 1 h (in vivo [8]; [25]) was 30 ± 8 %ID/g and the tissue uptake at 1 h (in vivo [8]; [26]) was 12 ± 5 %ID/g. It also gave a tissue uptake at 1 h (in vivo [8]; [27]) of 12 ± 2 %ID/g and a tissue uptake at 1 h (in vivo [8]; [28]) of 0.8 ± 0.2 %ID/g.
Compound C[C@@H](O)[C@@H]1NC(=O)[C@H](CCCCN)NC(=O)[C@@H](Cc2c[nH]c3ccccc23)NC(=O)[C@H](Cc2cccc3ccccc23)NC(=O)[C@@H](NC(=O)[C@@H](Cc2ccccc2)NC(=O)CN2CCN(CC(=O)O)CCN(CC(=O)O)CCN(CC(=O)O)CC2)CSSC[C@@H](C(=O)N[C@H](CO)[C@@H](C)O)NC1=O [^natGa-DOTA-NOC, metal not drawn, reference compound] has an EC50 (human SST2 [2]) of 0.59 nM, an IC50 (human SST2 [3]) of 0.7 nM and an EC50 (human SST5 [9]) of 3.3 nM. For the same compound, the IC50 (human SST5 [10]) was 3.4 nM.
With C[C@@H](O)[C@@H]1NC(=O)[C@H](CCCCN)NC(=O)[C@@H](Cc2c[nH]c3ccccc23)NC(=O)[C@H](Cc2cccc3ccccc23)NC(=O)[C@@H](NC(=O)[C@@H](Cc2ccccc2)NC(=O)CN2CCN(CC(=O)O)CCN(CC(=O)O)CCN(CC(=O)O)CC2)CSSC[C@@H](C(=O)N[C@H](CO)[C@@H](C)O)NC1=O [[^67Ga]Ga-DOTA-NOC, metal not drawn] the “log D” value [1] was “− 1.6 ± 0.1”.
For CC(C)[C@@H]1NC(=O)[C@H](CCCCN)NC(=O)[C@@H](Cc2c[nH]c3ccccc23)NC(=O)[C@H](Cc2ccc(O)c(I)c2)NC(=O)[C@@H](NC(=O)[C@@H](Cc2ccc(N)c(I)c2)NC(=O)CN2CCN(CC(=O)O)CCN(CC(=O)O)CCN(CC(=O)O)CC2)CSSC[C@@H](C(=O)N[C@H](C(N)=O)[C@@H](C)O)NC1=O [[^68Ga]Ga-DOTA-ST8950, metal not drawn], the tissue uptake at 2 h (in vivo [8]; [15]) was 4.3 ± 1 %ID/g, the tissue uptake at 2 h (in vivo [8]; [16]) was 0.8 ± 0.2 %ID/g and the tissue uptake at 2 h (in vivo [8]; [17]) was 2.4 ± 0.8 %ID/g. For the same compound, the tissue uptake at 2 h (in vivo [8]; [18]) was 0.8 ± 0.2 %ID/g, the tissue uptake at 1 h (in vivo [8]; [19]) was 2.4 ± 1.3 %ID/g and the tissue uptake at 2 h (in vivo [8]; [19]) was 2.7 ± 0.3 %ID/g. For the same compound, the tissue uptake at 2 h (in vivo [8]; [20]) was 14 ± 2 %ID/g, the tissue uptake at 1 h (in vivo [8]; [29]) was 6.4 ± 1.9 %ID/g and the tissue uptake at 2 h (in vivo [8]; [29]) was 7.3 ± 1.5 %ID/g. For the same compound, the tissue uptake at 2 h (in vivo [8]; [21]) was 3.5 ± 0.7 %ID/g, the tissue uptake at 2 h (in vivo [8]; [22]) was 0.6 ± 0.1 %ID/g and the tissue uptake at 1 h (in vivo [8]; [23]) was 8.5 ± 4.5 %ID/g. It also gave a tissue uptake at 1 h (in vivo [8]; [24]) of 8.5 ± 1.9 %ID/g, a tissue uptake at 2 h (in vivo [8]; [24]) of 7.8 ± 1.2 %ID/g and a tissue uptake at 1 h (in vivo [8]; [25]) of 26 ± 8 %ID/g. The tissue uptake at 2 h (in vivo [8]; [25]) was 32 ± 7 %ID/g, the tissue uptake at 1 h (in vivo [8]; [26]) was 15 ± 6 %ID/g and the tissue uptake at 2 h (in vivo [8]; [26]) was 14 ± 3 %ID/g. The tissue uptake at 2 h (in vivo [8]; [27]) was 8.4 ± 1.2 %ID/g, the tissue uptake at 2 h (in vivo [8]; [30]) was 8.6 ± 2.1 %ID/g and the tissue uptake at 2 h (in vivo [8]; [28]) was 1.5 ± 0.3 %ID/g. The tissue uptake at 1 h (in vivo [11]; [19]) was 2.5 ± 0.2 %ID/g, the tissue uptake at 1 h (in vivo [11]; [29]) was 6.2 ± 0.6 %ID/g and the tissue uptake at 1 h (in vivo [11]; athymic Nude-Foxn1^nu/Foxn1^+, SST(-) tumor uptake) was 1.4 ± 0.5 %ID/g. It also gave a tissue uptake at 1 h (in vivo [11]; [30]) of 7.4 ± 1.9 %ID/g.
In the case of C[C@@H](O)[C@H](NC(=O)[C@@H]1CSSC[C@H](NC(=O)[C@@H](Cc2ccccc2)NC(=O)CN2CCN(CC(=O)O)CCN(CC(=O)O)CCN(CC(=O)O)CC2)C(=O)N[C@@H](Cc2ccc(O)cc2)C(=O)N[C@H](Cc2c[nH]c3ccccc23)C(=O)N[C@@H](CCCCN)C(=O)N[C@@H]([C@@H](C)O)C(=O)N1)C(=O)O [^natGa-DOTA-TATE, metal not drawn], the EC50 (human SST5 [9]) is given as 39 nM and the IC50 (SST5 [12]) is given as over 1000 nM.
For “[^68Ga][Ga-1,4,7,10-tetraazacyclododecane-1,4,7,10-tetraacetic acid^0,Tyr^3]-octreotide [[^68Ga]Ga-DOTA-TOC]”, the IC50 (SST5 [13]) is listed as 73 ± 21 nM and the IC50 (SST2) is listed as 2.5 ± 0.5 nM.
In the case of “[^68Ga][Ga-DOTA^0,Tyr^3,Thr^8]-octreotate [[^68Ga]Ga-DOTA-TATE]”, the Blood values [14] is given as 0.4 ± 0.0 %IA/g, the Liver uptake [14] is given as 0.4 ± 0.2 %IA/g and the IC50 (SST2) is given as 0.2 ± 0.04 nM.
